Experimental data: PMC10731242, “Macromolecular crowding potently stimulates DNA supercoiling activity of Mycobacterium tuberculosis DNA gyrase” (The Journal of Biological Chemistry, 2023)

Biological target: T1, Mycobacterium tuberculosis DNA gyrase subunit A (Mycobacterium tuberculosis, UniProt P9WG47 1-838)
T1 construct: also called Mtb GyrA; Mtb gyrase subunit A
Assay: SEC
Conditions: both partners purified

T1 sequence (P9WG47 whole entry): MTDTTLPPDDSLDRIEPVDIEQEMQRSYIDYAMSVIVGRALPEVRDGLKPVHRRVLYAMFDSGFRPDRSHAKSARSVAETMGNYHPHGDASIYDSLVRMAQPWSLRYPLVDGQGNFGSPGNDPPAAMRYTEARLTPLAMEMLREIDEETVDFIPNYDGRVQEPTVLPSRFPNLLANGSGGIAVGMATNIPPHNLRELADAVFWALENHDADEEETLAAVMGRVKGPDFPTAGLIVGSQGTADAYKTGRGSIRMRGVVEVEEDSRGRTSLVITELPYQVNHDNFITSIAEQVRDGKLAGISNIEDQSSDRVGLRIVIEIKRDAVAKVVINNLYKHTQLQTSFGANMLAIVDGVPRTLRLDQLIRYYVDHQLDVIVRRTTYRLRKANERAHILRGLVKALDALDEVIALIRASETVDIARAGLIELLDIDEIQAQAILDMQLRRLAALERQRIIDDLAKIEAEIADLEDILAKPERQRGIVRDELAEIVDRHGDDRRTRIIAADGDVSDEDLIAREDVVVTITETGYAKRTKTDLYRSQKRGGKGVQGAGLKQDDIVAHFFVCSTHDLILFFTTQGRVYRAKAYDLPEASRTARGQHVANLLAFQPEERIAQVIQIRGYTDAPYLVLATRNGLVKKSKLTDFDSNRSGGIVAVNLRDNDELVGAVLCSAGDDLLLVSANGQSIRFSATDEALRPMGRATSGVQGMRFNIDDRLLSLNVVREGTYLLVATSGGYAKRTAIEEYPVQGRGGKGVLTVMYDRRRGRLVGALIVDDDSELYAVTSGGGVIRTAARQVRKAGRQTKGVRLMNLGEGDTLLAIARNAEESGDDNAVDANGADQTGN

B1: Mycobacterium tuberculosis DNA gyrase subunit B (enzyme)
chain: MAAQKKKAQDEYGAASITILEGLEAVRKRPGMYIGSTGERGLHHLIWEVVDNAVDEAMAGYATTVNVVLLEDGGVEVADDGRGIPVATHASGIPTVDVVMTQLHAGGKFDSDAYAISGGLHGVGVSVVNALSTRLEVEIKRDGYEWSQVYEKSEPLGLKQGAPTKKTGSTVRFWADPAVFETTEYDFETVARRLQEMAFLNKGLTINLTDERVTQDEVVDEVVSDVAEAPKSASERAAESTAPHKVKSRTFHYPGGLVDFVKHINRTKNAIHSSIVDFSGKGTGHEVEIAMQWNAGYSESVHTFANTINTHEGGTHEEGFRSALTSVVNKYAKDRKLLKDKDPNLTGDDIREGLAAVISVKVSEPQFEGQTKTKLGNTEVKSFVQKVCNEQLTHWFEANPTDAKVVVNKAVSSAQARIAARKARELVRRKSATDIGGLPGKLADCRSTDPRKSELYVVEGDSAGGSAKSGRDSMFQAILPLRGKIINVEKARIDRVLKNTEVQAIITALGTGIHDEFDIGKLRYHKIVLMADADVDGQHISTLLLTLLFRFMRPLIENGHVFLAQPPLYKLKWQRSDPEFAYSDRERDGLLEAGLKAGKKINKEDGIQRYKGLGEMDAKELWETTMDPSVRVLRQVTLDDAAAADELFSILMGEDVDARRSFITRNAKDVRFLDV
notes: also called Mtb GyrB; gyrB
B1: binds.
